Non-standard residues stand in square brackets, D forms with d. No end group written: not given here. pY = N[C@@H](Cc1ccc(OP(=O)(O)O)cc1)C(=O)O
Target: T1, GST-nephrin-CD (residues 1102–1252) (rat, UniProt Q9R044 1102-1252)
T1 sequence (looked up): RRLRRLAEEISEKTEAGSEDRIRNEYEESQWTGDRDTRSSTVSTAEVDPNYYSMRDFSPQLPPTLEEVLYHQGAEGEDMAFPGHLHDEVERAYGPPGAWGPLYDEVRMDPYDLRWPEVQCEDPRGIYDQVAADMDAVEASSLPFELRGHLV
Experiment: pull-down

binding result: binds
B1: phosphorylated TRPC6 Y284 peptide (peptide)
peptide: CLASPA[pY]LSLSSE

Source: paper PMC3103399 (Molecular Biology of the Cell, 2011)
